# Results: US20160280794A1
# Molecular target: Ramos (human) (UniProt P11836)
# Experiment: FACS binding; Ramos cells
# Chain of Ramos (human) (P11836 whole entry): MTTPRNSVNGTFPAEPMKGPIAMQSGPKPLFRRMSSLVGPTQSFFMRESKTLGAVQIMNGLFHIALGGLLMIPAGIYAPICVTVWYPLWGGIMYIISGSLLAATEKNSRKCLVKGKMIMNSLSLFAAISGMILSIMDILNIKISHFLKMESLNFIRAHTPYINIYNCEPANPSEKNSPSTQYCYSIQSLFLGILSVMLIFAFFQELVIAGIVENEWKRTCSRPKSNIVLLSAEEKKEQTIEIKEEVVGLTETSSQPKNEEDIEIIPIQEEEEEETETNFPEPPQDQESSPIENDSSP
substance,measurement,value
Rituxan-GlcNAc,EC50,1.54 µg/mL
Rituxan-SCT,EC50,1.2 µg/mL
